Results on 1 molecule are retold here after paper PMC3064491 (Nature, 2011).

The target of the assay is T1, human OGT construct (hOGT4.5) containing 4.5 TPR units and the catalytic domain (human, UniProt O15294-3 313-1031).
T1 sequence (looked up): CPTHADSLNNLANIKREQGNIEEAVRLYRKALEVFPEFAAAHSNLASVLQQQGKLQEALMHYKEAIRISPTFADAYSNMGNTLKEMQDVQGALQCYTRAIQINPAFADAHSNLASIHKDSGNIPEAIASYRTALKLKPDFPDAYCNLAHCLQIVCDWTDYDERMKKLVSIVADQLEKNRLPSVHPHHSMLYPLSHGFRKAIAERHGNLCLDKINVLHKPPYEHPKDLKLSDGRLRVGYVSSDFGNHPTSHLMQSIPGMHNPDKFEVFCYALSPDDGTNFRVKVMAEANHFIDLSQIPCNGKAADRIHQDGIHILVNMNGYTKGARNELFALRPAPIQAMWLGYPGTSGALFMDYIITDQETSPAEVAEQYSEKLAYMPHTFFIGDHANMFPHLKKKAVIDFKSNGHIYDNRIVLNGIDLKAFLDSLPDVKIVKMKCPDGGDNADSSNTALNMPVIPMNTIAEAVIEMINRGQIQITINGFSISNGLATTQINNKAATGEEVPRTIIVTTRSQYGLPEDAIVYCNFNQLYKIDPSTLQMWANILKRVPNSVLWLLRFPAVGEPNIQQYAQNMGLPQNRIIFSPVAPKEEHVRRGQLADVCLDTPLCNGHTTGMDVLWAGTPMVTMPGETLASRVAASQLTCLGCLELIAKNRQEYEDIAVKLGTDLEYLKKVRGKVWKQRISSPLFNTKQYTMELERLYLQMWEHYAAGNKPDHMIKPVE
Kind of assay: crystal structure.

With YPGGSTPVSSANMM [14 residue-CKII peptide substrate], the binding result is “binds”.
